Results as given in US6004757.

Key:
[1] = molecular target: chicken pp60^v-src (chicken)
[2] = molecular target: human EGF receptor (human) (UniProt P00533)
[3] = molecular target: GST-fusion construct of src
[4] = molecular target: chicken pp60^v-src (chicken); assay: inhibition of transphosphorylation of acid denatured enolase (1 µM) by immobilised pp60^v-src, [γ-32P]-ATP, SDS-PAGE

peptide Ala-Glu-Glu-Glu-Ile-Tyr-Gly-Glu-Phe-Glu-Ala-Lys-Lys-Lys-Lys
Km (µM) of phosphorylation of the peptide by the kinase [1]: 32.9 µM | Km (µM) of phosphorylation of the peptide by the kinase [2]: 34 µM | Km of phosphorylation of the peptide by the kinase [3]: 33 µM | Ki [4]: 8 µM
